According to IntAct's records for PubMed 31515488:

B1: Myotubularin-related protein 9 (Homo sapiens), Q96QG7 (parent)
chain: MEFAELIKTPRVDNVVLHRPFYPAVEGTLCLTGHHLILSSRQDNTEELWLLHSNIDAIDKRFVGSLGTIIIKCKDFRIIQLDIPGMEECLNIASSIEALSTLDSITLMYPFFYRPMFEVIEDGWHSFLPEQEFELYSSATSEWRLSYVNKEFAVCPSYPPIVTVPKSIDDEALRKVATFRHGGRFPVLSYYHKKNGMVIMRSGQPLTGTNGRRCKEDEKLINATLRAGKRGYIIDTRSLNVAQQTRAKGGGFEQEAHYPQWRRIHKSIERYHILQESLIKLVEACNDQTHNMDRWLSKLEASNWLTHIKEILTTACLAAQCIDREGASILIHGTEGTDSTLQVTSLAQIILEPRSRTIRGFEALIEREWLQAGHPFQQRCAQSAYCNTKQKWEAPVFLLFLDCVWQILRQFPCSFEFNENFLIMLFEHAYASQFGTFLGNNESERCKLKLQQKTMSLWSWVNQPSELSKFTNPLFEANNLVIWPSVAPQSLPLWEGIFLRWNRSSKYLDEAYEEMVNIIEYNKELQAKVNILRRQLAELETEDGMQESP
partner: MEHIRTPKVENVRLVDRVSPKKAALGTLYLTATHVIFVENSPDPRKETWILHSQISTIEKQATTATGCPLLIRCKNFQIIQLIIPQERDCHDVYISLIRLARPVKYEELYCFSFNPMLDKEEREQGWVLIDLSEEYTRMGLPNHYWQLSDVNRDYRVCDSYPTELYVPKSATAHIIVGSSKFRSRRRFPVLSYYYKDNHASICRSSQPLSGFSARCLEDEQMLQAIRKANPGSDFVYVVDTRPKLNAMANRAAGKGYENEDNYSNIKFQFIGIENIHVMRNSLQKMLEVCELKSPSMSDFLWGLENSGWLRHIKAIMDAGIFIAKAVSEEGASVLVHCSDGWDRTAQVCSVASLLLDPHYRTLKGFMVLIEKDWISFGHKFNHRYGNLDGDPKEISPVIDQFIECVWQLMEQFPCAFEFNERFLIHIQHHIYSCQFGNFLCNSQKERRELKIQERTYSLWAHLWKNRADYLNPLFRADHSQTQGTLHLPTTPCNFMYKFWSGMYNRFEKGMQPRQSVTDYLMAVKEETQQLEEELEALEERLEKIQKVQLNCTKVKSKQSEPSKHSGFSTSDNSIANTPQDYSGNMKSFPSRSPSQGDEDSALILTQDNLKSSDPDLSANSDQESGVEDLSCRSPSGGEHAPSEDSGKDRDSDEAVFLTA
B2: Coiled-coil domain-containing protein 185 (Homo sapiens), Q8N715 (parent)
chain: MAGFSHFSQPPYRDLWEPPRPGGERESTQRLGGQRSGADSTACSRAGTPGAESEAGACWLHPHCSFTPRPRRRGCSDSLRGSRSLSDVARRPLERSRKHRPRSRRLEDAWGETGTKPRPAWQPQTQLPPQRPQPCPHYPLAQGDSPPPCPGGAGTPLSGTFRVEKAQGGDQWAVPLGRHLGRWSPSSVPSERSSVPSQKFKRHSACVCAQKRDSSDQVESLASRDSQPLASSKEMRSPHTQVLKSKLEEVVVSSQDQQIVALVLTRLKKAQRIRELQQQAAKAWEELKRSDQKVQMTLERERRLLLRQSQEQWQEKEQRKTLQSPEQRGLRRDSQRKNVPPGESRWKEQPEDQESPRQEKLEKARAQAEHRKQCQVRRLREQEKMLRNLREQHSLQLQRRLVEACRKRHLHAVEGQKKVQDTNLSSLINYQARKVLMDCQAKAEELLRQLSLEQSFQRSQEIHQGLRKERQRELREKAQKEEEQLQQARWRAGESEEQRKMRKRILVELADEKIRQARSHVHKTTRDKVQHLRELNHLREKNHHILKLKAEKEEKCHIEGIKEAIKKKEQRVQHISQGKDPNFQEFQKLPQASRREERAPPNSSLDQMVLEAQLRACQQNRGY
partner: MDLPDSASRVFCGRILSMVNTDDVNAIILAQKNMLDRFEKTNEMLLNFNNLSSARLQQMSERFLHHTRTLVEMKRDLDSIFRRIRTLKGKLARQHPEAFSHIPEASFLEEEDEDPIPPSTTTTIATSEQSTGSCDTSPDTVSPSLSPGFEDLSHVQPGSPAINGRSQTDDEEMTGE
B3: Zyxin (Homo sapiens), Q15942 (parent)
chain: MAAPRPSPAISVSVSAPAFYAPQKKFGPVVAPKPKVNPFRPGDSEPPPAPGAQRAQMGRVGEIPPPPPEDFPLPPPPLAGDGDDAEGALGGAFPPPPPPIEESFPPAPLEEEIFPSPPPPPEEEGGPEAPIPPPPQPREKVSSIDLEIDSLSSLLDDMTKNDPFKARVSSGYVPPPVATPFSSKSSTKPAAGGTAPLPPWKSPSSSQPLPQVPAPAQSQTQFHVQPQPQPKPQVQLHVQSQTQPVSLANTQPRGPPASSPAPAPKFSPVTPKFTPVASKFSPGAPGGSGSQPNQKLGHPEALSAGTGSPQPPSFTYAQQREKPRVQEKQHPVPPPAQNQNQVRSPGAPGPLTLKEVEELEQLTQQLMQDMEHPQRQNVAVNELCGRCHQPLARAQPAVRALGQLFHIACFTCHQCAQQLQGQQFYSLEGAPYCEGCYTDTLEKCNTCGEPITDRMLRATGKAYHPHCFTCVVCARPLEGTSFIVDQANRPHCVPDYHKQYAPRCSVCSEPIMPEPGRDETVRVVALDKNFHMKCYKCEDCGKPLSIEADDNGCFPLDGHVLCRKCHTARAQT
partner: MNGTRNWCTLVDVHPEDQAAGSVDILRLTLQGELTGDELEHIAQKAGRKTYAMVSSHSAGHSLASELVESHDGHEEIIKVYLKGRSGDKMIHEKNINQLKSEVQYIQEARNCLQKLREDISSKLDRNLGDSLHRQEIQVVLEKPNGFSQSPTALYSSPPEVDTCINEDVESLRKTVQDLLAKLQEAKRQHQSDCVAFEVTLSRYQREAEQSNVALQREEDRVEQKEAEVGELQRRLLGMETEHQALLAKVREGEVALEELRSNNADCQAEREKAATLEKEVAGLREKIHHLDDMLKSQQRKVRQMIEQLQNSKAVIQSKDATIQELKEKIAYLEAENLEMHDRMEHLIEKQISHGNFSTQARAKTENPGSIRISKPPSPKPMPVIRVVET
B4: Protein BEX5 (Homo sapiens), Q5H9J7 (parent)
chain: MENVPKENKVVEKAPVQNEAPALGGGEYQEPGGNVKGVWAPPAPGFGEDVPNRLVDNIDMIDGDGDDMERFMEEMRELRRKIRELQLRYSLRILIGDPPHHDHHDEFCLMP
partner: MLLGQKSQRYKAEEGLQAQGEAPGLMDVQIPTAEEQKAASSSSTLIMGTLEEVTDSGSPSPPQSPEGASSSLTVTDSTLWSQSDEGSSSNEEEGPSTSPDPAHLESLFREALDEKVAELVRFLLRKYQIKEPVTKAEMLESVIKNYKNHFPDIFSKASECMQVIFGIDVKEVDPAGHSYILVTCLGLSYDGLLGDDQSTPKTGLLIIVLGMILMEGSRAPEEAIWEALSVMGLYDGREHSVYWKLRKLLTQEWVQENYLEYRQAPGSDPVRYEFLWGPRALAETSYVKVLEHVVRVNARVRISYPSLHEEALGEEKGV
B5: Cytochrome b-245 chaperone 1 (Homo sapiens), Q9BQA9 (parent)
chain: MYLQVETRTSSRLHLKRAPGIRSWSLLVGILSIGLAAAYYSGDSLGWKLFYVTGCLFVAVQNLEDWEEAIFDKSTGKVVLKTFSLYKKLLTLFRAGHDQVVVLLHDVRDVSVEEEKVRYFGKGYMVVLRLATGFSHPLTQSAVMGHRSDVEAIAKLITSFLELHCLESPTELSQSSDSEAGDPASQS
partner: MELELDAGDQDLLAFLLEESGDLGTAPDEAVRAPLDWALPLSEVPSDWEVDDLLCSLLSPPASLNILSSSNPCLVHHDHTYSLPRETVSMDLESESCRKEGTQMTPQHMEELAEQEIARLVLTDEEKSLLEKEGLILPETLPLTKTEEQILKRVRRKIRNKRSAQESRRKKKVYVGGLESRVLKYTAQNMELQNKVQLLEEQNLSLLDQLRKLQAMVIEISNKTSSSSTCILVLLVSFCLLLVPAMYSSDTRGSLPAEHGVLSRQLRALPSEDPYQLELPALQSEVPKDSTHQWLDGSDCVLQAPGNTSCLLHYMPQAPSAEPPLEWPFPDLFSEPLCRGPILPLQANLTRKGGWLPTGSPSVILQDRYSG

Variants of: B1
Details: with mtmr7_human MTMR7, Q9Y216

Variant	effect of a mutation on the interaction
S126C	with no effect

Variants of: B2
Details: with kxdl1_human KXD1, Q9BQD3

Variant	effect of a mutation on the interaction
S603G	with no effect

Variants of: B3
Details: with tuft1_human TUFT1, Q9NNX1

Variant	effect of a mutation on the interaction
H223L	with no effect
R563Q	with no effect

Variants of: B4
Details: with maga8_human MAGEA8, P43361

Variant	effect of a mutation on the interaction
E74D	with no effect

Variants of: B5
Details: with creb3_human CREB3, O43889

Variant	effect of a mutation on the interaction
R129W	with no effect
